Common to all, as to assay: purified protein
Holding throughout (format): biochemical, Chloroflexus aggregans
Common to all, as to details: 100 μM NADPH, 50 mM Tris-HCl pH 8.0, 25 °C, 1% ethanol, 200 nM enzyme

Substrate in series [1]: C=CC(=O)CCCCC
Substrate in series [2]: CC1=CC(=O)CC(C)(C)C1=O
Substrate in series [3]: O=C1C=CCCC1

B1: CaOYE (Chloroflexus aggregans DSM 9485) (protein)
chain: MQPHLFTPLTIGSVTLRNRIGMSPMCQYSAVDGFPTDWHLMHLGARAAGGVGLIILEATAVSPEGRISPFDLGIWSDDHIAALSRIVKLIESLGAVAGIQLAHAGRKASVGRPWEGGKPIAPANGGWPVVGPTAEPFAPGYPTPIPLDAAGIARVVADFATATKRARAAGFRWIEIHAAHGYLLHNFLSPLGNDRNDEYGGDLRGRVRLLSEVTAAVRAEWPSDLPLAVRLSCSDWTPEGLTIADTVEVARMLREQGVDLIDCSSGGIAPGITIPVGEGYQVPFAAQVRREANIATAAVGLITRPEHADAIVRNGDADLVLLGRELLRDPHWPLRAARALGHDLAPPPQYLRAW
notes: full-length ORF in pET-28a(+) (NdeI/BamHI), N-terminal His6-tag, E. coli BL21(DE3); model visible Met1 to Trp354; monomer in solution, dimer in crystal
As to B1, the Michaelis-Menten constant (Km) (in general, the concentration of substrate that gives half-maximal velocity) in series [1] is 10.32 ± 1.438 mM; in series [2] it was 0.013 ± 0.002 mM; in series [3], 5.520 ± 0.627 mM. The kcat (commonly the number of substrate molecules converted per active site and unit of time at saturation) in series [1] was found to be 12.1 ± 0.661 s⁻¹; in series [2] it was 2.27 ± 0.055 s⁻¹; in series [3], 3.82 ± 0.176 s⁻¹. Besides, the catalytic efficiency (kcat/Km) – broadly, the turnover number divided by the Michaelis constant – in series [1] amounted to 1170 M⁻¹ s⁻¹; in series [2], 175000 M⁻¹ s⁻¹; in series [3], 690 M⁻¹ s⁻¹.

(Values after article PMC8146883, “A New Thermophilic Ene-Reductase from the Filamentous Anoxygenic Phototrophic Bacterium Chloroflexus aggregans” (Microorganisms, 2021).)
